First the molecules themselves.
B1: C3A_13 (other)
chain: GPPCPAPELLGGPSVFLFPPKPKDTLMISRTPEVTCVVVDVSHEDPEVKFNWYVDGVEVHNAKTKPREEQYNSTYRVVSVLTVLHQDWLDGKEYKCKVSNKALPVPIEKTISKAKGQPREPQVYTLPPSRDELTKNQVSLTCLVKGFYPSDIAVEWESNGQPENNYKTTPPVLDSDGSFFLYSKLTVDKSRWQQGNVFSCSVMHEALHYHYTQKSLSLSPGK
notes: EU numbering
B2: C8A_15 (other)
chain: B1 chain with G1C, A102V, V172M
notes: EU numbering
B3: T5A_74B (other)
chain: B1 chain with G1C, P5S, N136D, A153V
notes: EU numbering
B4: C6A_60D (other)
chain: B1 chain with G1C, P3R, P5S, V105A, M203L
notes: EU numbering
B5: C6A_12 (other)
chain: B1 chain with G1C, P5T, V105A, Q137E
notes: EU numbering
B6: T4A_48 (other)
chain: B1 chain with G1C, V83I, E157V
notes: EU numbering
B7: C6A_69D (other)
chain: B1 chain with G1C, P3L, T82A, E157V, N164T
notes: EU numbering
B8: T5A_74F (other)
chain: B1 chain with G1C, P3R, P5S, N136D, A153V
notes: EU numbering
B9: T5A_25 (other)
chain: B1 chain with V39E, D90N, V105A, Q122R, K145R, A153V, Y209S
notes: EU numbering
B10: C6A_85 (other)
chain: B1 chain with G1C, V80A, N164K
notes: EU numbering
B11: C6A_78D (other)
chain: B1 chain with G1C, P3R, T31N, D90N, V105A, A153V
notes: EU numbering
B12: C6A_74D (other)
chain: B1 chain with G1C, P3R, V34I, V105A
notes: EU numbering
B13: C5A_39 (other)
chain: B1 chain with G1C, K65E, V105A, Q117R, E157V
notes: EU numbering
B14: T4A_37 (other)
chain: B1 chain with G1C, P5S, V39E, D90N, V105A, P127S, A153V, Y209S
notes: EU numbering
B15: C5A_09 (other)
chain: B1 chain with G1C, F16L, V39E, T82P, D90N, V105A, A153V, Y209S
notes: EU numbering
B16: T5A_45 (other)
chain: B1 chain with G1C, A6T, F16L, V39E, D90N, V105A, A153T, V172M, Y209S
notes: EU numbering
B17: C6A_78B (other)
chain: B1 chain with G1C, P3L, T31N, D90N, V105A, A153V
notes: EU numbering
B18: C6A_78C (other)
chain: B1 chain with G1C, P5S, T31N, D90N, V105A, A153V
notes: EU numbering
B19: C6A_78F (other)
chain: B1 chain with G1C, P3R, P5S, T31N, D90N, V105A, A153V
notes: EU numbering
B20: T5A_74D (other)
chain: B1 chain with G1C, P3R, N136D, A153V
notes: EU numbering
B21: T4A_42 (other)
chain: B1 chain with V105A, Q137R
notes: EU numbering
B22: C5A_65 (other)
chain: B1 chain with G1C, P5T, Q161K
notes: EU numbering
B23: C6A_48 (other)
chain: B1 chain with G1C, P5T, V39E, D90N, V105A, A153V, Y209S
notes: EU numbering
B24: C6A_60C (other)
chain: B1 chain with G1C, P3L, P5S, V105A, M203L
notes: EU numbering
B25: T5A_74C (other)
chain: B1 chain with G1C, P3L, N136D, A153V
notes: EU numbering
B26: T7A_35 (other)
chain: B1 chain with G1C, V105A, Q137R, S219P
notes: EU numbering
B27: T7A_49 (other)
chain: B1 chain with G1C, P5T, K95E, V105A, Q137R
notes: EU numbering
B28: T8A_41 (other)
chain: B1 chain with G1C, V39E, D90N, V105A, P118S, A153V, Y209S
notes: EU numbering
B29: T8A_81 (other)
chain: B1 chain with G1C, V39A, V105A, E157V
notes: EU numbering
B30: T8A_34 (other)
chain: B1 chain with G1C, T82A, V105A, T110A
notes: EU numbering
B31: T7A_46 (other)
chain: B1 chain with G1C, V39E, D90N, V105A, A153V, G160R, Y209S
notes: EU numbering
B32: T7A_57 (other)
chain: B1 chain with G1C, P5T, T82A, Q193E
notes: EU numbering
B33: T7A_48 (other)
chain: B1 chain with G1C, P5T, L9R
notes: EU numbering
B34: T8A_45 (other)
chain: B1 chain with G1C, D90N, V105A, S150A, A153V
notes: EU numbering
B35: T7A_18 (other)
chain: B1 chain with G1C, V39E, D90N, V105A, A153V, Q161R, Y209S
notes: EU numbering
B36: T8A_24 (other)
chain: B1 chain with G1C, V39E, T82P, D90N, V105A, A153V, Y209S
notes: EU numbering
B37: T7A_24 (other)
chain: B1 chain with G1C, V39E, D90N, V105A, A153V, N196T
notes: EU numbering
B38: T7A_87 (other)
chain: B1 chain with G1C, P5S, V105A, Q137R
notes: EU numbering
B39: T7A_58 (other)
chain: B1 chain with G1C, V105A, Q137E
notes: EU numbering

Substitutions are numbered along the chain they refer to.

T1 sequence (P55899 24-297, chain 1 of 2): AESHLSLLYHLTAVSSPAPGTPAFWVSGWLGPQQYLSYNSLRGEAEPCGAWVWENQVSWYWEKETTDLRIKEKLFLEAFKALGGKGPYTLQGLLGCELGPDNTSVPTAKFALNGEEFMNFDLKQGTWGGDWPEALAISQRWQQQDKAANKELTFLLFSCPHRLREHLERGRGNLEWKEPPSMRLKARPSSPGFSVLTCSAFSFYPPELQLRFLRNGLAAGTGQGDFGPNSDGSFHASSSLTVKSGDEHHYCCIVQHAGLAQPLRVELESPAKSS
T1 sequence (P61769 21-119, chain 2 of 2): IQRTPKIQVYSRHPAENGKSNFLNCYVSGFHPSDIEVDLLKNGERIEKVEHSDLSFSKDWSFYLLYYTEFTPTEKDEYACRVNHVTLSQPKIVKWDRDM

One test concerns the target T1, FcRn-p3 fusion protein (human, UniProt P55899 24-297; P61769 21-119).
T1 construct: baculovirus expressed; coated on ELISA wells; not shown: amino terminal part of bacteriophage p3 protein and CVDE protein
The test can be described thus: phage ELISA pH6. On the technique in general: An ELISA detects its analyte on a solid surface through an enzyme-linked reagent.
As to B1, the Ratio/Fc-H is 5.6 fold.

Take B2: the Ratio/Fc-H is 7.4 fold.

In the case of B3, the Ratio/Fc-H is 5.9 fold.

On to B4, for which the Ratio/Fc-H amounted to 7.4 fold.

On to B5, for which the Ratio/Fc-H is 4.6 fold.

For the molecule B6, the Ratio/Fc-H amounted to 4.5 fold.

B7: the Ratio/Fc-H is 4.8 fold.

Turning to B8, the Ratio/Fc-H was 16.8 fold.

On to B9, for which the Ratio/Fc-H was found to be 4.6 fold.

For the molecule B10, the Ratio/Fc-H came out at 7.4 fold.

Take B11: the Ratio/Fc-H was determined as 28.3 fold.

Regarding B12, the Ratio/Fc-H amounted to 18.6 fold.

B13: the Ratio/Fc-H is 5 fold.

B14: the Ratio/Fc-H stood at 4 fold.

Take B15: the Ratio/Fc-H was determined as 4.8 fold.

As to B16, the Ratio/Fc-H worked out at 4.5 fold.

For B17, the Ratio/Fc-H turned out to be 14.4 fold.

With B18, the Ratio/Fc-H worked out at 9.2 fold.

As to B19, the Ratio/Fc-H turned out to be 9.4 fold.

B20: the Ratio/Fc-H was determined as 26 fold.

For B21, the Ratio/Fc-H came out at 4.6 fold.

In the case of B22, the Ratio/Fc-H was determined as 4.2 fold.

In the case of B23, the Ratio/Fc-H came out at 4.5 fold.

Consider B24, for which the Ratio/Fc-H amounted to 5.3 fold.

Turning to B25, the Ratio/Fc-H turned out to be 7.5 fold.

The target of another test is T1, FcRn-p3 fusion protein. The test can be described thus: phage ELISA pH6. This is another data set of the same source.
On to B1, for which the Ratio/Fc-H is 5.6 fold.

For the molecule B2, the Ratio/Fc-H was 7.4 fold.

As for B26, the Ratio/Fc-H came to 1.7 fold.

Consider B5, for which the Ratio/Fc-H was 4.6 fold.

B27: the Ratio/Fc-H stood at 3.6 fold.

For B28, the Ratio/Fc-H stood at 2.5 fold.

As for B6, the Ratio/Fc-H stood at 4.5 fold.

Turning to B9, the Ratio/Fc-H was 4.6 fold.

Take B29: the Ratio/Fc-H is 2.5 fold.

B10: the Ratio/Fc-H is 7.4 fold.

Turning to B30, the Ratio/Fc-H amounted to 1.8 fold.

In the case of B13, the Ratio/Fc-H came out at 5 fold.

B31: the Ratio/Fc-H was 2.6 fold.

For the molecule B32, the Ratio/Fc-H came out at 2.5 fold.

Consider B14, for which the Ratio/Fc-H turned out to be 4 fold.

Take B15: the Ratio/Fc-H came out at 4.8 fold.

With B33, the Ratio/Fc-H was determined as 3.6 fold.

On to B34, for which the Ratio/Fc-H came to 1.8 fold.

For the molecule B16, the Ratio/Fc-H worked out at 4.5 fold.

Regarding B35, the Ratio/Fc-H was found to be 2.8 fold.

Regarding B36, the Ratio/Fc-H was found to be 3.5 fold.

In the case of B37, the Ratio/Fc-H came to 2.3 fold.

As to B38, the Ratio/Fc-H is 2.9 fold.

Turning to B21, the Ratio/Fc-H was 4.6 fold.

On to B39, for which the Ratio/Fc-H is 2.9 fold.

For B22, the Ratio/Fc-H was 4.2 fold.

B23: the Ratio/Fc-H came to 4.5 fold.

In a further test the target is T1, FcRn-p3 fusion protein. The test can be described thus: phage ELISA pH6 (est.).
For the molecule B1, the Ratio/FWT stood at 17.9 fold.

For B2, the Ratio/FWT stood at 23.7 fold.

For the molecule B26, the Ratio/FWT was determined as 5.4 fold.

Take B5: the Ratio/FWT turned out to be 14.9 fold.

Regarding B27, the Ratio/FWT was determined as 11.6 fold.

Turning to B28, the Ratio/FWT turned out to be 7.9 fold.

With B6, the Ratio/FWT amounted to 14.5 fold.

On to B9, for which the Ratio/FWT amounted to 14.7 fold.

On to B29, for which the Ratio/FWT is 8.2 fold.

Regarding B10, the Ratio/FWT amounted to 23.8 fold.

Consider B30, for which the Ratio/FWT amounted to 5.6 fold.

Consider B13, for which the Ratio/FWT worked out at 15.9 fold.

For the molecule B31, the Ratio/FWT turned out to be 8.2 fold.

Turning to B32, the Ratio/FWT is 8.1 fold.

With B14, the Ratio/FWT was determined as 12.8 fold.

With B15, the Ratio/FWT was 15.2 fold.

For B33, the Ratio/FWT was 11.6 fold.

For B34, the Ratio/FWT was 5.9 fold.

Turning to B16, the Ratio/FWT came to 14.3 fold.

Regarding B35, the Ratio/FWT worked out at 8.9 fold.

Take B36: the Ratio/FWT is 11.1 fold.

For the molecule B37, the Ratio/FWT was 7.2 fold.

As for B38, the Ratio/FWT turned out to be 9.3 fold.

B21: the Ratio/FWT came out at 14.7 fold.

As for B39, the Ratio/FWT is 9.4 fold.

Take B22: the Ratio/FWT was found to be 13.5 fold.

In the case of B23, the Ratio/FWT turned out to be 14.4 fold.

The next test addresses T1, FcRn-p3 fusion protein. The test can be described thus: phage ELISA pH6 (est.). The source holds these as a separate data set.
B1: the Ratio/Fc-WT came to 17.9 fold.

In the case of B2, the Ratio/Fc-WT was 23.7 fold.

Regarding B3, the Ratio/Fc-WT came out at 18.8 fold.

Consider B4, for which the Ratio/Fc-WT was determined as 23.8 fold.

On to B5, for which the Ratio/Fc-WT came out at 14.9 fold.

As for B6, the Ratio/Fc-WT was 14.5 fold.

As to B7, the Ratio/Fc-WT was 15.3 fold.

With B8, the Ratio/Fc-WT amounted to 53.8 fold.

As to B9, the Ratio/Fc-WT stood at 14.7 fold.

Take B10: the Ratio/Fc-WT stood at 23.8 fold.

With B11, the Ratio/Fc-WT amounted to 90.5 fold.

With B12, the Ratio/Fc-WT is 59.7 fold.

For the molecule B13, the Ratio/Fc-WT was determined as 15.9 fold.

Regarding B14, the Ratio/Fc-WT came out at 12.8 fold.

As for B15, the Ratio/Fc-WT came out at 15.2 fold.

Turning to B16, the Ratio/Fc-WT amounted to 14.3 fold.

As for B17, the Ratio/Fc-WT came to 45.9 fold.

Consider B18, for which the Ratio/Fc-WT worked out at 29.4 fold.

In the case of B19, the Ratio/Fc-WT was 30.1 fold.

Turning to B20, the Ratio/Fc-WT came out at 83.1 fold.

In the case of B21, the Ratio/Fc-WT is 14.7 fold.

Take B22: the Ratio/Fc-WT worked out at 13.5 fold.

Regarding B23, the Ratio/Fc-WT came out at 14.4 fold.

With B24, the Ratio/Fc-WT was 17.1 fold.

Turning to B25, the Ratio/Fc-WT amounted to 24 fold.
